The test system of data set [1] is HeLa Kyoto. In words: solubility in G1/S (NP-40 vs SDS abundance) (log2 ratio); higher = more soluble. Conditions: cell cycle stage: G1/S.
The subject of data set [2] is HeLa Kyoto. In words: solubility change mitosis vs G1/S (difference of NP-40 vs SDS log2 ratios) (log2 ratio difference); higher = more soluble in mitosis.
Data set [3] has as its system HeLa Kyoto. In words: thermal stability score vs G1/S (z-score of summed log2 fold changes over temperatures); higher = more thermally stable than in G1/S.
Where [4] appears, read: cell cycle stage: early G1 (4.5 h after nocodazole release).
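Throughout, for solubility change mitosis vs G1/S (difference of NP-40 vs SDS log2 ratios): synchronized HeLa Kyoto cells (double thymidine block for G1/S, nocodazole release for mitosis), protein amounts in NP-40 versus SDS lysates quantified by mass spectrometry, three biological replicates.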
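Throughout, for solubility in G1/S (NP-40 vs SDS abundance): HeLa Kyoto cells arrested at G1/S by double thymidine block, proteins quantified by TMT10plex mass spectrometry in mild NP-40 versus SDS extracts, three biological replicates.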
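Throughout, for thermal stability score vs G1/S (z-score of summed log2 fold changes over temperatures): synchronized HeLa Kyoto cells, proteins quantified by TMT10plex mass spectrometry, three biological replicates, mitosis taken 0.5 h after nocodazole release, G1/S directly after double thymidine block.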

Sequence of WWP2 (chain, as listed by the source): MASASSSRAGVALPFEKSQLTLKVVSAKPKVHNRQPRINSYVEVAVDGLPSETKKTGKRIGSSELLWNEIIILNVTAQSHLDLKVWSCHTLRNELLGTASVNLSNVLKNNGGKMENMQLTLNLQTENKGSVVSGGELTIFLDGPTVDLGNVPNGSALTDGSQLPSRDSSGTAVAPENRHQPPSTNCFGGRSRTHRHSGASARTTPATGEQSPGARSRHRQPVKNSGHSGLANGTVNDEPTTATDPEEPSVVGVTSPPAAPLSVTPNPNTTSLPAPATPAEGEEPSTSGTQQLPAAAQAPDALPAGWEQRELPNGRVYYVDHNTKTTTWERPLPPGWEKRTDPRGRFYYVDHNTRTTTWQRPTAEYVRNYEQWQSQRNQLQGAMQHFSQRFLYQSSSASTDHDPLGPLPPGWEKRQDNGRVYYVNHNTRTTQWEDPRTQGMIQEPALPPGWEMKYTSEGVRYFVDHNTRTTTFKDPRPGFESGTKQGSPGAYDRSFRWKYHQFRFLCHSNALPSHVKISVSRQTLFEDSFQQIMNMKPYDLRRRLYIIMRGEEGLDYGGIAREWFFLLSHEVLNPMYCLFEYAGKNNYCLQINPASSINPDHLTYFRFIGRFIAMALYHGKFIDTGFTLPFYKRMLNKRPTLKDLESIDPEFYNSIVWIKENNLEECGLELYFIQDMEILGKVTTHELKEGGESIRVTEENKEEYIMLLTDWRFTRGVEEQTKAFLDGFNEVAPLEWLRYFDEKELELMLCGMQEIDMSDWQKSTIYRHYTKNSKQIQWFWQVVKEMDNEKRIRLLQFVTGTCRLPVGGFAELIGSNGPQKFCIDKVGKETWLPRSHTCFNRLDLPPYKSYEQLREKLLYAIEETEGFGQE

Take WWP2: in the data set on HeLa Kyoto [1], the “solubility in G1/S (log2)” value is -0.136. Moreover, in the data set with HeLa Kyoto [2], the “solubility change mitosis (log2)” value was -0.0544. For the same substance, the thermal stability score with HeLa Kyoto [3] (setting [4]) is 0.284; with HeLa Kyoto [3] (cell cycle stage: mitosis) it was -1.96.

With “MWKRSEQMKIKSGKCNMAAAMETEQLGVEIFETADCEENIESQDRPKLEPFYVERYSWSQLKKLLADTRKYHGYMMAKAPHDFMFVKRNDPDGPHSDRIYYLAMSGENRENTLFYSEIPKTINRAAVLMLSWKPLLDLFQATLDYGMYSREEELLRERKRIGTVGIASYDYHQGSGTFLFQAGSGIYHVKDGGPQGFTQQPLRPNLVETSCPNIRMDPKLCPADPDWIAFIHSNDIWISNIVTREERRLTYVHNELANMEEDARSAGVATFVLQEEFDRYSGYWWCPKAETTPSGGKILRILYEENDESEVEIIHVTSPMLETRRADSFRYPKTGTANPKVTFKMSEIMIDAEGRIIDVIDKELIQPFEILFEGVEYIARAGWTPEGKYAWSILLDRSQTRLQIVLISPELFIPVEDDVMERQRLIESVPDSVTPLIIYEETTDIWINIHDIFHVFPQSHEEEIEFIFASECKTGFRHLYKITSILKESKYKRSSGGLPAPSDFKCPIKEEIAITSGEWEVLGRHGSNIQVDEVRRLVYFEGTKDSPLEHHLYVVSYVNPGEVTRLTDRGYSHSCCISQHCDFFISKYSNQKNPHCVSLYKLSSPEDDPTCKTKEFWATILDSAGPLPDYTPPEIFSFESTTGFTLYGMLYKPHDLQPGKKYPTVLFIYGGPQVQLVNNRFKGVKYFRLNTLASLGYVVVVIDNRGSCHRGLKFEGAFKYKMGQIEIDDQVEGLQYLASRYDFIDLDRVGIHGWSYGGYLSLMALMQRSDIFRVAIAGAPVTLWIFYDTGYTERYMGHPDQNEQGYYLGSVAMQAEKFPSEPNRLLLLHGFLDENVHFAHTSILLSFLVRAGKPYDLQIYPQERHSIRVPESGEHYELHLLHYLQENLGSRIAALKVI [DPP8]”, the “solubility in G1/S (log2)” value in the data set on HeLa Kyoto [1] is -0.288. In the data set on HeLa Kyoto [2], the “solubility change mitosis (log2)” value is -0.0129. For the same substance, the results for the thermal stability score in the data set on HeLa Kyoto [3] (setting [4]) and in the data set on HeLa Kyoto [3] (cell cycle stage: mitosis) were -0.204 and 0.0056, respectively.

For the substance “MAAAAPAAAAASSEAPAASATAEPEAGDQDSREVRVLQSLRGKICEAKNLLPYLGPHKMRDCFCTINLDQEEVYRTQVVEKSLSPFFSEEFYFEIPRTFQYLSFYVYDKNVLQRDLRIGKVAIKKEDLCNHSGKETWFSLQPVDSNSEVQGKVHLELKLNELITENGTVCQQLVVHIKACHGLPLINGQSCDPYATVSLVGPSRNDQKKTKVKKKTSNPQFNEIFYFEVTRSSSYTRKSQFQVEEEDIEKLEIRIDLWNNGNLVQDVFLGEIKVPVNVLRTDSSHQAWYLLQPRDNGNKSSKTDDLGSLRLNICYTEDYVLPSEYYGPLKTLLLKSPDVQPISASAAYILSEICRDKNDAVLPLVRLLLHHDKLVPFATAVAELDLKDTQDANTIFRGNSLATRCLDEMMKIVGGHYLKVTLKPILDEICDSSKSCEIDPIKLKEGDNVENNKENLRYYVDKLFNTIVKSSMSCPTVMCDIFYSLRQMATQRFPNDPHVQYSAVSSFVFLRFFAVAVVSPHTFHLRPHHPDAQTIRTLTLISKTIQTLGSWGSLSKSKSSFKETFMCEFFKMFQEEGYIIAVKKFLDEISSTETKESSGTSEPVHLKEGEMYKRAQGRTRIGKKNFKKRWFCLTSRELTYHKQPGSKDAIYTIPVKNILAVEKLEESSFNKKNMFQVIHTEKPLYVQANNCVEANEWIDVLCRVSRCNQNRLSFYHPSVYLNGNWLCCQETGENTLGCKPCTAGVPADIQIDIDEDRETERIYSLFTLSLLKLQKMEEACGTIAVYQGPQKEPDDYSNFVIEDSVTTFKTIQQIKSIIEKLDEPHEKYRKKRSSSAKYGSKENPIVGKAS [RASA2]”, the “solubility in G1/S (log2)” value in the data set on HeLa Kyoto [1] was -0.1. For the same substance, in the data set with HeLa Kyoto [2], the “solubility change mitosis (log2)” value was -0.128. Also, the thermal stability score was found to be 0.349 in the data set on HeLa Kyoto [3] (setting [4]) and 0.0928 with HeLa Kyoto [3] (cell cycle stage: mitosis).

As for “MSQYTEKEPAAMDQESGKAVWPKPAGGYQTITGRRYGRRHAYVSFKPCMTRHERSLGRAGDDYEVLELDDVPKENSSGSSPLDQVDSSLPSEPIFEKSETEIPTCGSALNQTTESSQSFVAVHHSEEGRDTLGSSTNLHNHSEGEYIPGACSASSVQNGIALVHTDSYDPDGKHGEDNDHLQLSAEVVEGSRYQESLGNTVFELENREAEAYTGLSPPVPSFNCEVRDEFEELDSVPLVKSSAGDTEFVHQNSQEIQRSSQDEMVSTKQQNNTSQERQTEHSPEDAACGPGHICSEQNTNDREKNHGSSPEQVVRPKVRKLISSSQVDQETGFNRHEAKQRSVQRWREALEVEESGSDDLLIKCEEYDGEHDCMFLDPPYSRVITQRETENNQMTSESGATAGRQEVDNTFWNGCGDYYQLYDKDEDSSECSDGEWSASLPHRFSGTEKDQSSSDESWETLPGKDENEPELQSDSSGPEEENQELSLQEGEQTSLEEGEIPWLQYNEVNESSSDEGNEPANEFAQPAFMLDGNNNLEDDSSVSEDLDVDWSLFDGFADGLGVAEAISYVDPQFLTYMALEERLAQAMETALAHLESLAVDVEVANPPASKESIDGLPETLVLEDHTAIGQEQCCPICCSEYIKDDIATELPCHHFFHKPCVSIWLQKSGTCPVCRRHFPPAVIEASAAPSSEPDPDAPPSNDSIAEAP [PJA2]”, the “solubility in G1/S (log2)” value in the data set on HeLa Kyoto [1] is -0.111. Besides, the “solubility change mitosis (log2)” value in the data set with HeLa Kyoto [2] was determined as 0.121. Moreover, the thermal stability score was -3.9 in the data set on HeLa Kyoto [3] (setting [4]) and -1.5 in the data set on HeLa Kyoto [3] (cell cycle stage: mitosis).

Take “MDANSKDKPPETKESAMNNAGNASFILGTGKIVTPQKHAELPPNPCTPDTFKSPLNFSTVTVEQLGITPESFVRNSAGKSSSYLKKCRRRSAVGARGSPETNHLIRFIARQQNIKNARKSPLAQDSPSQGSPALYRNVNTLRERISAFQSAFHSIKENEKMTGCLEFSEAGKESEMTDLTRKEGLSACQQSGFPAVLSSKRRRISYQRDSDENLTDAEGKVIGLQIFNIDTDRACAVETSVDLSEISSKLGSTQSGFLVEESLPLSELTETSNALKVADCVVGKGSSDAVSPDTFTAEVSSDAVPDVRSPATPACRRDLPTPKTFVLRSVLKKPSVKMCLESLQEHCNNLYDDDGTHPSLISNLPNCCKEKEAEDEENFEAPAFLNMRKRKRVTFGEDLSPEVFDESLPANTPLRKGGTPVCKKDFSGLSSLLLEQSPVPEPLPQPDFDDKGENLENIEPLQVSFAVLSSPNKSSISETLSGTDTFSSSNNHEKISSPKVGRITRTSNRRNQLVSVVEESVCNLLNTEVQPCKEKKINRRKSQETKCTKRALPKKSQVLKSCRKKKGKGKKSVQKSLYGERDIASKKPLLSPIPELPEVPEMTPSIPSIRRLGSGYFSSNGKLEEVKTPKNPVKRKDLLRHDPDLHMHQGYDKYDVSEFCSYIKSSSSLGNATSDEDPNTNIMNINENKNIPKAKNKSESENEPKAGTDSPVSCASVTEERVASDSPKPALTLQQGQEFSAGGQNAENLCQFFKISPDLNIKCERKDDFLGAAEGKLQCNRLMPNSQKDCHCLGDVLIENTKESKSQSEDLGRKPMESSSVVSCRDRKDRRRSMCYSDGRSLHLEKNGNHTPSSSVGSSVEISLENSELFKDLSDAIEQTFQRRNSETKVRRSTRLQKDLENEGLVWISLPLPSTSQKAKRRTICTFDSSGFESMSPIKETVSSRQKPQMAPPVSDPENSQGPAAGSSDEPGKRRKSFCISTLANTKATSQFKGYRRRSSLNGKGESSLTALERIEHNGERKQ [CDCA2]”: the “solubility in G1/S (log2)” value in the data set on HeLa Kyoto [1] is -0.581. Also, in the data set on HeLa Kyoto [2], the “solubility change mitosis (log2)” value was determined as 0.243. Further, the thermal stability score in the data set with HeLa Kyoto [3] (setting [4]) was 0.00387; in the data set on HeLa Kyoto [3] (cell cycle stage: mitosis) it was -1.54.

The record behind these values is the supplement of paper PMC5998384.
